Measurements as given in a protein production outcome set (Wang et al. 2014).

Experiment: label from the status in PepcDB records
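Note: failed if final PepcDB status was selected cloned or expressed and not failed if soluble or beyond.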

Sequence | protein production
MENLASPPDISFVIAAYNAADTIEAAVQSALDQRGVTLEVIVVDDRSADDTITFVEAIAAIDPRVRLLALEENRGPGGARNAGIEAATGRWIAVLDSDDVIRPERSACMMCRAEAANAAVAVDNLDVVYTDGRPMETMFPEEFLEERAVLTLEDFISSNILFRSTFNFGYMKPMFRRDFLNNEGLRFREDIRIGEDYILLASALAAGGLCVIEPKPGYIYNIREGSISRVLELHHVEAMMRADQEFLSHYTLLPAAMDAQQARARSLQLAHNFLTLVENIKRRSVLGALKTTIRDPAVLGHLRMPIAVRLRRLRDAMFAPAAKIQGLEHHHHHH | not failed
MENLGDRLEVVAELSLAPGNITLTPDGRLFLSLHQFYQPEMQVAELTQDGLIPFPPQSGNAIITFDTVLGIKSDGNGIVWMLDNGNQSKSVPKLVAWDTLNNQLSRVIYLPPPITLSNSFVNDLAVDLIHNFVYISDPAPDDKAALIRVDLQTGLAARVLQGYPGIAPEDIDLVIDGVPVQIGQPDGTVIRPHLGVNGIVLDAENEWLYLSPMHSTSMYRIKSADLSNLQLTDAELGSKIERYSEKPICDGISIDKDHNIYVGDLAHSAIGVITSADRAYKLLVTDEKLSWTDSFNFGSDGYLYFDCNQLHHSAPLNAGENISAPPYYIFRLKPLAAGIVGR | not failed
MENLYKELGDQSLHKDFCQTVASTFSCSVNRNGKSSITWKQVQIWFQEKLKHQSQPKSKTLPSPPLQIHDLSNPSSYASNASNATFVGNSTFVQTRKGKASDLADLAFEAKSARDYAWYDVSSFLTYRVLRTGELEVRVRFSGFDNRHDEWVNVKTSVRERSIPVEPSECGRVNVGDLLLCFQEREDQALYCDGHVLNIKRGIHDHARCNCVFLVRYELDNTEESLGLERICRRPEE | failed
MENRIELYDSKARYGVISRGLHWAMALAFAWIYSTTSAHYLLADSALDKFLWPTHKQVGLLLMALLLVRVLWSLLNRHRRPPSLNLAATLGHGLLYAGMFAIPFLGLLRQYGSGRAFSAFGLPVMNGFDGPKIQWMTELGNNFHSLLGWTLLVLIVGHVAALILHCIKGQGHILRRMAGSARSA | failed
MENSDDIRLIVKIAQLYYEQDMTQAQIARELGIYRTTISRLLKRGRDQGMVTIAINYDYNENLWLEQQLKQKFGLKDVVVVSGNDEDEETQLAMMGLHGAQLLDRLLEPGDIVGFSWGRAVSALVENLPQAGQSRQLICVPIIGGPSGKLESRYHVNTLTYSAAAKLKGESHLADFPALLDNPLIRNGIMQSQHFKTISAYWDNLDIALVGIGSPAIRDGANWHAFYGGEESDDLNARQVAGDICSRFFDIHGAMVETNMSEKTLSIEMNKLKQARYSIGIAMSEEKYSGIIGALRGKYINCLVTNSSTAELLLK | not failed
MENTLSFKKQGYWLFSSAIIIGVLFLLLPHIISNIGVLEFIGAFFNALCMGVIAFIILKAEFLDWFKHFSFKWIIIGAPALIIISSIFNIAWAYFAGSTTENGINSVLTWTYVFTSIPFMLLGEELLSISLLYAAWKKWNWKFWQASLLCSLLFATWHLTSYDFNFLQCIITLAPARLILNYLFKKTNSVWVTFIVHFIFDFIAFLPILLK | failed
MENYHRLYELSPLITGWTICVMILRIYKKMLNDHSFELHLILQDEAGKRIEVTIGTRFSAFYYDRLIENQWKMISTFLGTVLLNNFTPFDYILEHSVRKDTLVDLLGALIDFDWLTNSAPNGSDMDGFKLQFRFIDSKFTIYSQDILQCEAHGEYAVDLEKKFRSVRNNKVVIALAFWKIVTYFDGGHRMKIASHAPISTVYPDPDIEPVKEIKMVCIY | failed
MEPCSSDEFFQALNHAEQTFKKMENYLRHKQLCDVILVAGDRRIPAHRLVLSSVSDYFAAMFTNDVREARQEEIKMEGVEPNSLWSLIQYAYTGRLELKEDNIECLLSTACLLQLSQVVEACCKFLMKQLHPSNCLGIRSFADAQGCTDLHKVAHNYTMEHFMEVIRNQEFVLLPANEIAKLLASDDMNIPNEETILNALLTWVRHDLEQRRKDLSRLLAYIRLPLLAPQAPGLELSSPDLHSKDLAHSAISSTPK | failed
MEPGLRLLIQLVLEFAPVFVNILHKRSEESLTTARYQVPNLIQGFIETINNINDIDNSNKSLEQEKLWQQQLVAYQRETQAQIANQQRDTALKLPEVNKILDSWPLRLYPSQILESHHSYERKPLKVFIAPPKIHFDKFDNHVETYSEIELMLAEGLREFINENYSLHSPTRPIEFLAGAWDSKRFHSESSIKALFGMLKTEPILILESENDGDYLNFRIAYWGLTQGTYYYKTISRLPYKEIIQNSAKNRALEWKKVRDELLEIGVDVEEINEFGKDNVFNLAILEKAEKWQAQGIDISKLSLQYRVSQQDIEQLCQVLITCHCLVAAWVADIYHLGNHDIPPLLPELLPSLLKNAIDVQSLQAIASSYKQVYEALEKERLYWIPELSMQLAQSLSHLPDTSWAQAEVDYSINTWLELRQVSLQQFTSPLEAMQSVVKIEDEEYIQKLREYFTVIGDRHNLQFVEKLLEAIATLKYKRSLEYPYLTKTITGHSGKVKSVAISPDGEVIVSGCTDQTVNIWNLQTGKLIRTLTGNLGEVSSVAISPDGNFLAVGSGVHPRSNVKVWHLKTGKLLHTLLGHQKPVNVVVISPDGQILASGSNKIKIWNLQKGDGVPPTVGDRICTLWHSSAVHAIAISPDSTILASGSSDNKIRLWNPRTGDPLRTLNSHDNEVKAIAISRDGQFLFSGSADTTIKIWHLITGQILHTLTGHSGDIKSLTTSPNGQFLFSGSADTTIKIWRISTGELLHTLTGHSASVNSVAISPGGNLLASGSADQTIKIWQIDKI | failed
MEPIMRNPEDALLDSWHQNAQAWIDAVRHGAIESRRQVTDQAILLAILGRQPERVLDLGCGEGWLLRALADRGIEAVGVDGDRTLVDAARAAGAGEVHLASYAQLAEAKVPVGKDYDLICANFALLHQDIIELLSAMRTLLVPGGALVIQTLHPWSVADGDYQDGWREESFAGFAGDWQPMPWYFRTLASWLNALDMAGLRLVSLQEPQHPQSAVPQSLLMVAERH | failed
MEPKPFFLCIIFLLFCSSSSEILQKQTYIVQLHPNSETAKTFASKFDWHLSFLQEAVLGVEEEEEEPSSRLLYSYGSAIEGFAAQLTESEAEILRYSPEVVAVRPDHVLQVQTTYSYKFLGLDGFGNSGVWSKSRFGQGTIIGVLDTGVWPESPSFDDTGMPSIPRKWKGICQEGESFSSSSCNRKLIGARFFIRGHRVANSPEESPNMPREYISARDSTGHGTHTASTVGGSSVSMANVLGNGAGVARGMAPGAHIAVYKVCWFNGCYSSDILAAIDVAIQDKVDVLSLSLGGFPIPLYDDTIAIGTFRAMERGISVICAAGNNGPIESSVANTAPWVSTIGAGTLDRRFPAVVRLANGKLLYGESLYPGKGIKNAGREVEVIYVTGGDKGSEFCLRGSLPREEIRGKMVICDRGVNGRSEKGEAVKEAGGVAMILANTEINQEEDSIDVHLLPATLIGYTESVLLKAYVNATVKPKARIIFGGTVIGRSRAPEVAQFSARGPSLANPSILKPDMIAPGVNIIAAWPQNLGPTGLPYDSRRVNFTVMSGTSMSCPHVSGITALIRSAYPNWSPAAIKSALMTTADLYDRQGKAIKDGNKPAGVFAIGAGHVNPQKAINPGLVYNIQPVDYITYLCTLGFTRSDILAITHKNVSCNGILRKNPGFSLNYPSIAVIFKRGKTTEMITRRVTNVGSPNSIYSVNVKAPEGIKVIVNPKRLVFKHVDQTLSYRVWFVLKKKNRGGKVASFAQGQLTWVNSHNLMQRVRSPISVTLKTN | failed
MEPNIKVQSEDLRYIVQVVTSKIKVYDIIVDPVSVKFYFFDSDNEGIDASFDYIRRELVDKGFIPFLSRDGENFIQVTRRPKQRYFGNIVNVVLLVATILSTMYVGSQYSINFVPRGSFYELRLWAYGFLFFSAPLLLILGIHESAHFLVAKRHHVKASLPFFIPFPVGIGTFGAFISLRDPLPNRKAMTEIGAAGPIAGFLTALPLLFVADYFQGVIKPIPPYYIPFKVTFPLIYQLLGLHTNFTGPIFPMVFAVWVGMFATAMNLIPAGQLDGSHILRGVLGNRANVLSYVFLAFLFGIGFFYTGWWIIAIFVVFTGLVHPPALNDFSKISKLDIVLGIVSLAMFILTFTIVPIKPA | failed
MEPNRFGDILAFVSAVKAGSFTSAAATLGVTRSAVGKSVARLEARLGVRLLHRTTRKLNVTGEGLVVFERWSQILEDLEEVDATMAQRRGKPAGILRLTAPLSFGQRHILPILNAYVTNWPEIQADVWFTDHYVDLIEEGIDVAVRIGGVKDDARILSRTIGGQQFVTCAAPGYLAKKGVPSTPADLAGHDTIFFLSGQRPMPWRLGQGDAIEVCDGPGRMNIDSSEALREAALSGFGLIHLPTYITGKDLQRGDLVEVLEAYRPPADPIRLIYPSKRHLSPRTRAFIDLLIERWRDGVPWERLEPAS | failed
MEQHQVWAYQTKTHSVTLNSVDIPALAADDILVQNQAIGINPVDWKFIKANPINWSNGHVPGVDGAGVIVKVGAKVDSKMLGRRVAYHTSLKRHGSFAEFTVLNTDRVMTLPDNLSFERAAALPCPLLTAWQAFEKIPLTKQREVLIVGFGAVNNLLTQMLNNAGYVVDLVSASLSQALAAKRGVRHLYREPSQVTQKYFAIFDAVNSQNAAALVPSLKANGHIICIQDRIPAPIDPAFTRTISYHEIALGALHDFGDRQDWQILMQQGEALLTLIAQGKMEIAAPDIFRFEQMIEALDHSEQTKLKTVLTLNE | not failed
MEQIILDIIEFLKQFSYFGVVLALTFEFIPAEVVLPMVGYWVYEGDMNFWLAVLAGTLGGTTGPLTLYALGYYGGRPLLIKYGKYFFIKEEQIQKADDFFEKYGPVVAFVGRFVPGVRTLISVPCGKAKMNIWKFSIYTFVAMFPLTTLYVYCEMKLGPHWEKAADVVGQYMLPILVVVVIIVGGILIYKFMKKRNRSESI | failed
MEQKILSSEPRRSFSNEFKLQMVKLASQPGAXVARIAREHDINDNLLFKWLRLWQNERRISRRLPVTTSSGAGVELLPVEITPDEQKEPMAALTPLLSTPSQSTVSASSCKVEFRHGNMTLENPSPELLTVLIRELTGRGR | failed
MEQLDAIRRLNVAIFDDAHIIETFERDDLLMLLARSGGTDVGFKLGYRLNEAAFYSAKGGVHPAHRRNGIARALLYDMLDVVAGRGYERFVYDTFPNKHPGMTVLGLDEGFEVIRAGYSAKYQDYRLRFAWTFDAA | failed
MEQRRVTDFFARRRPGPPRIAPPKLACRTPSPARPALRAPASATSGSRKRARPPAAPGRDQARPPARRRLRLSVDEVSSPSTPEAPDIPACPSPGQKIKKSTPAAGQPPHLTSAQDQDTISELASCLQRARELGARVRALKASAQDAGESCTPEAEGRPEEPCGEKAPAYQRFHALAQPGLPGLVLPYKYQVLAEMFRSMDTIVGMLHNRSETPTFAKVQRGVQDMMRRRFEERNVGQIKTVYPASYRFRQERSVPTFKDGTRRSDYQLTIEPLLEQEADGAAPQLTASRLLQRRQIFSQKLVEHVKEHHKAFLASLSPAMVVPEDQLTRWHPRFNVDEVPDIEPAALPQPPATEKLTTAQEVLARARNLISPRMEKALSQLALRSAAPSSPGSPRPALPATPPATPPAASPSALKGVSQDLLERIRAKEAQKQLAQMTRCPEQEQRLQRLERLPELARVLRSVFVSERKPALSMEVACARMVGSCCTIMSPGEMEKHLLLLSELLPDWLSLHRIRTDTYVKLDKAADLAHITARLAHQTRAEEGL | failed
MEQSLGSKQNLGSKQNQITKPHKLVLDNRKRTNLTGIEDVVEFDTTQIVLESSMGMLVIKGADLKITRLSIEKGEADIDGSVNSVIYSQIKNYGEKGKSVLKRMFS | failed
